Assay results reported in patent US6835806B2, “Cell growth regulation system” (Phoenix Pharmaceuticals, Inc., priority 2000, dated 2004).

System: Human umbilical vein endothelial cells (HUVEC)
Assay: [3H]thymidine incorporation, HUVEC growth in vitro
Assay type: cell-based
Settings: increasing concentrations, FIG. 6C
Protocol: To determine if the '362 peptide or the '367 peptide affects the in-vitro growth of cells, the '362 peptide was tested in culture dishes for the ability to inhibit the growth of prostrate tumor cells or of lung tumor cells. Radioactive hydrogen (^3 H) was attached to thymidine([^3H]hymidine), which is one of the components of DNA. Cells that grow in the presence of [^3H]thymidine incorporate the radioactive thymidine into their DNA.
Human umbilical vein endothelial cells (HUVEC) were also grown in increasing concentrations of the '362 peptide or '367 peptide in the presence of radioactive thymidine. HUVEC cells are commonly used to test for angiogenic regulation because these cells respond to angiogenic inhibitors in a fashion similar to the cells in the human body that form new blood vessels. […] Research protocols designed to elucidate the reasons for this unexpected difference in response of HUVEC to endostatin protein and to '362 peptide are set out in the Research Plan, Phoenix Pharmaceuticals, Inc., 2438 Wyandotte Street, Mountain View, Calif. 94043, (1999) which is hereby incorporated by reference.

B1: endostatin protein: protein of about 20 kDa with a zinc-binding domain, inhibitor of endothelial cell growth (FIG. 5) (protein, UniProt P39060 1572-1754, looked up)
Endostatin: HSHRDFQPVLHLVALNSPLSGGMRGIRGADFQCFQQARAVGLAGTFRAFLSSRLQDLYSIVRRADRAAVPIVNLKDELLFPSWEALFSGSEGPLKPGARIFSFDGKDVLRHPTWPQKSVWHGSDPNGRRLTESYCETWRTEAPSATGQASSLLGGRLLGQSAASCHHAYIVLCIENSFMTASK
modifications: Endostatin
HUVEC growth rate (radioactive thymidine): dramatic reduction in HUVEC growth
